Bounds are passed on as bounds.

This passage reports EC50-SEAP (HEK Blue IL-18), fold attenuation by 1.25 µg/ml hrIL-18-BP, EC50-SEAP, HEK-Blue IL-18 reporter cells, rhIL-18 titrated in medium alone (row 'Human rIL-18') and EC50-SEAP, HEK-Blue IL-18 reporter cells, rhIL-18 titrated in medium with 1.25 µg/ml rhIL-18BP (row 'Human rIL-18 + BP') results from patent US20260274968A1.

Assay [1] deals with human recombinant IL-18-BP (human) (UniProt O95998). The experiment in a line: cell-based or functional assay.
Sequence of human recombinant IL-18-BP (human) (O95998 31-194 limits assumed): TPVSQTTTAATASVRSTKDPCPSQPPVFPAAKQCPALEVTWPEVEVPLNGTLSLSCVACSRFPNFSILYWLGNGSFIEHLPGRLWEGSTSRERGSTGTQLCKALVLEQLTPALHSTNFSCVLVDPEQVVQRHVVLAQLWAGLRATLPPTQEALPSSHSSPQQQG
In assay [2] the target is human IL-18 receptor complex (IL-18Rα/β) (human) (UniProt Q13478).
Sequence of human IL-18 receptor complex (IL-18Rα/β) (human) (Q13478 19-541, chain 1 of 2): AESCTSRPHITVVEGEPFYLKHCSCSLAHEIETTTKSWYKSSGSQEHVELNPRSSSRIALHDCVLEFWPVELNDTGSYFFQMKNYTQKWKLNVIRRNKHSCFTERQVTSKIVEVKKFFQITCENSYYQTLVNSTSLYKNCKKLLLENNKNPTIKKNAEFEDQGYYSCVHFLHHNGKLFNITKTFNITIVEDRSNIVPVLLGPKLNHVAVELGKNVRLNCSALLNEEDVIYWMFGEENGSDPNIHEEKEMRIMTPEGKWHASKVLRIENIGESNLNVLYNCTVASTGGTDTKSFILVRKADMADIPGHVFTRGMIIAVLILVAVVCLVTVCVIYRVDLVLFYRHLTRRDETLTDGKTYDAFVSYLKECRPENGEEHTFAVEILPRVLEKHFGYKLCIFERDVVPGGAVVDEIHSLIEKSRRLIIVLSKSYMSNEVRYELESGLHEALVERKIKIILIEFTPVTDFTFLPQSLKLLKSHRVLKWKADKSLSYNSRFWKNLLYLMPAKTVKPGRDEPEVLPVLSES
Sequence of human IL-18 receptor complex (IL-18Rα/β) (human) (O95256 20-599, chain 2 of 2, further chain): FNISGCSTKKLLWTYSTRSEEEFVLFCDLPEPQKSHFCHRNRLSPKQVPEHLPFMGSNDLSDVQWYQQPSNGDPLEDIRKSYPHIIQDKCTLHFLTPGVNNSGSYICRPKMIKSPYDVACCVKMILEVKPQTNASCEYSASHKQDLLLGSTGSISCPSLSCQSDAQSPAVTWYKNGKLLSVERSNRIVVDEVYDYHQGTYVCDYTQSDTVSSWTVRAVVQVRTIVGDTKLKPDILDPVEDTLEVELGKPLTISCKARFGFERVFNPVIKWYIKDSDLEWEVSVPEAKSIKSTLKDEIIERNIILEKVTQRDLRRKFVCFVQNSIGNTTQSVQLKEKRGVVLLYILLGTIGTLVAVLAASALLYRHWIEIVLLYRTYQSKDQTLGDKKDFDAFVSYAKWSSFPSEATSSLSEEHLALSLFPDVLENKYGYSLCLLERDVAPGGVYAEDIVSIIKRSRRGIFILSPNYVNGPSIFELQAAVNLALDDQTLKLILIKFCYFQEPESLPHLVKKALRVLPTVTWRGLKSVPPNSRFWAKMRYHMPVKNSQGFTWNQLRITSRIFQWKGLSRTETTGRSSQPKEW
For assay [3], the target named is human recombinant IL-18-BP (human) (UniProt O95998).

Sequence of recombinant human mature IL-18 (Q14116 37-193): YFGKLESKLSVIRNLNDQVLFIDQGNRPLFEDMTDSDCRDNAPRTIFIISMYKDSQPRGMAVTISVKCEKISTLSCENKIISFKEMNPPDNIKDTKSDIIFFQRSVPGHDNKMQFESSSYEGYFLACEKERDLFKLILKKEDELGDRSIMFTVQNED

For the substance “recombinant human mature IL-18 (from UniProt Q14116 37-193) (ligand)”, the EC50-SEAP (HEK Blue IL-18), fold attenuation by 1.25 µg/ml hrIL-18-BP in assay [1] was more than 1000 fold. The same substance gave an EC50-SEAP, HEK-Blue IL-18 reporter cells, rhIL-18 titrated in medium alone (row 'Human rIL-18') in assay [2] of 0.0317 ng/mL. In addition, in assay [3], the EC50-SEAP, HEK-Blue IL-18 reporter cells, rhIL-18 titrated in medium with 1.25 µg/ml rhIL-18BP (row 'Human rIL-18 + BP') is more than 1 ng/mL.
